Experiments:
[1] = test system: CC[C@@]1([C@@H]2O[C@@H]([C@H]3O[C@@](O)(CO)[C@H](C)C[C@@H]3C)C[C@@H]2C)CC[C@H]([C@]2(C)CC[C@]3(C[C@H](O)[C@@H](C)[C@@H]([C@@H](C)[C@@H](OC)[C@H](C)C(=O)O)O3)O2)O1; test: purified protein, by the assay type; details: other: ATPase, 0–300 μM, 30 min, 37°C
From the text: The Gentest ATPase assay (Corning, Germany) was used to investigate the binding kinetics of the panel of P-gp substrates against membranes constituted to display human MDR1, mouse Mdr1a, mouse Mdr1b and mouse Bcrp. The assays measure the accumulation of inorganic phosphate (absorbance at 800 nm) produced in the breakdown of ATP to ADP. […] The assays were used in accordance with the manufacturer’s protocol to calculate (GraphPad Prism) the Michaelis-Menten parameters Km and VMAX. For the assay test compounds were serially diluted to produce an assay concentration range of 0–300 μM with the kinetics of ATP turnover examined over 30 min at 37°C.

[2] = test system: CN1CCC[C@@H]1Cc1c[nH]c2ccc(CCS(=O)(=O)c3ccccc3)cc12; test: purified protein, by the assay type; details: other: ATPase, 0–300 μM, 30 min, 37°C

mouse Mdr1a (Mus musculus), sequence (chain, as listed by the source): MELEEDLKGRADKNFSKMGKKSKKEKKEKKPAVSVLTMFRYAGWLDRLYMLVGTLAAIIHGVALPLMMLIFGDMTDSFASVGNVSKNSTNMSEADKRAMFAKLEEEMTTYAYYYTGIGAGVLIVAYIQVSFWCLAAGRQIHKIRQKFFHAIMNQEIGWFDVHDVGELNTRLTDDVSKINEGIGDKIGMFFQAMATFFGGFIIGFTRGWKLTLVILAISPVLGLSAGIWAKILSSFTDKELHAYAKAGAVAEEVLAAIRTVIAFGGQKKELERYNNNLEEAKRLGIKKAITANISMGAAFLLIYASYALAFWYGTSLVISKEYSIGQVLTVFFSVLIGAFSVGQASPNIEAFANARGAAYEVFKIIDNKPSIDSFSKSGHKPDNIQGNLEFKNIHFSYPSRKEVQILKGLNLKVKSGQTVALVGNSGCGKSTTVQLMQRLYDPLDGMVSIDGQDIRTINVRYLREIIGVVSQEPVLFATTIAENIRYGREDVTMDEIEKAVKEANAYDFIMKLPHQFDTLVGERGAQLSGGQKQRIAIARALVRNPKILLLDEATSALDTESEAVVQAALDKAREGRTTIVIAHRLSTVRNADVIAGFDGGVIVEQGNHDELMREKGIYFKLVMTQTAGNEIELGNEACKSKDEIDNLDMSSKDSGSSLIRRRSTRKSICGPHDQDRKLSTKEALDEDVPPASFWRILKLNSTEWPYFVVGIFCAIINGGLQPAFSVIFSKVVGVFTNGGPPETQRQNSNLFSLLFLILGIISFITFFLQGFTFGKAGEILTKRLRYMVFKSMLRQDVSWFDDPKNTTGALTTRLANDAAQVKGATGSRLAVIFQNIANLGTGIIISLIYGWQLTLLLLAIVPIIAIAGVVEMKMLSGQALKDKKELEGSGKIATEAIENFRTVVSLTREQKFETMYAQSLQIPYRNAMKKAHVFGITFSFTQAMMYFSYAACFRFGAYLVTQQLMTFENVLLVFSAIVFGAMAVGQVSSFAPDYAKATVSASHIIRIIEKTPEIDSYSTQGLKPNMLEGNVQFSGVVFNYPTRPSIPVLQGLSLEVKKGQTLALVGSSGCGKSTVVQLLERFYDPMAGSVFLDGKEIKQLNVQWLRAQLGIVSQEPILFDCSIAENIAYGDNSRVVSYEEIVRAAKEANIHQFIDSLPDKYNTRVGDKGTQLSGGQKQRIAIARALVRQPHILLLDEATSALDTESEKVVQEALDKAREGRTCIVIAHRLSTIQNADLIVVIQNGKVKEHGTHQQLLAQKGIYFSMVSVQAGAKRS

mouse Mdr1a (Mus musculus) gave a Km [1] of 22.0 µM, a Km [2] of 45.6 µM and a Vmax [2] of 32.6 µM/min.

Substance mouse Mdr1b (Mus musculus) has a Km [1] of 30.6 µM, a Km [2] of 58.1 µM and a Vmax [2] of 76.1 µM/min.

With human MDR1 (Homo sapiens) the Km [1] was 14.8 µM, the Vmax [1] was 15.6 µM/min and the Km [2] was 91.5 µM. It also gave a Vmax [2] of 42.2 µM/min.

— PMC5736782, “The Differential Absorption of a Series of P-Glycoprotein Substrates in Isolated Perfused Lungs from Mdr1a/1b Genetic Knockout Mice can be Attributed to Distinct Physico-Chemical Properties: an Insight into Predicting Transporter-Mediated, Pulmonary Specific Disposition” (Pharmaceutical Research, 2017)
